Tests used:
human PAR1 = biological target: T1, human PAR1 (Homo sapiens, UniProt P25116, INS26FLNCCPGCCMEPA); experiment: Release of N-terminal BAB motif from PAR1 on COS-1 cells; format: cell-based; conditions: 0.1 and 0.5 units per ml, 37°C, 30 minutes
T1 construct: expressed in transfected cells; host or cells: COS-1
T1 sequence (P25116 with tags, fused parts or gaps limits assumed): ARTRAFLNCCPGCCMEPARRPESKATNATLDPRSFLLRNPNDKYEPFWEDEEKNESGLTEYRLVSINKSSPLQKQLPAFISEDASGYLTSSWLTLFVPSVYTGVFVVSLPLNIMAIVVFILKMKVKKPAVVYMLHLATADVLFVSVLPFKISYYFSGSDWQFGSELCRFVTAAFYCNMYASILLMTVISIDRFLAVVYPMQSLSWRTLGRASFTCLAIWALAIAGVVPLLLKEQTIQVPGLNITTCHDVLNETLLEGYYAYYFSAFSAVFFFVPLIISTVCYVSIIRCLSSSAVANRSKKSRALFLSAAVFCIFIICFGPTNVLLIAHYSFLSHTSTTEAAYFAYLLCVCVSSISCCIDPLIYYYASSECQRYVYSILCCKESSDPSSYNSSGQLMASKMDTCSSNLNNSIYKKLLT
From the text: (§1) The biarsenical fluorochrome binding domain (BAB), containing a tetra-cysteine motif, […] for PAR1, […] for PAR2 and […] for PAR4 was inserted into the receptor N-terminal domains by introducing corresponding oligonucleotides just downstream of the signal peptide of PARs, after A26 for human PAR1, Q27 for human PAR2 and V25 for human PAR4. The PAR DNA constructs containing the N-terminal BAB domain and a YFP C-terminal fluorochrome tag were cloned in pCDNA3.1+ at the restriction enzyme sites between Eco RI and Xba I. COS-1 cells obtained from ATCC (Manassas, VA USA) were transected with the PAR constructs with the FuGENE6 transfection reagent (Roche Applied Bioscience). The expression level of the expressed receptor was quantified using a fluorescence plate reader, (Victor 4X, Perkin-Elmer), and confocal microscopy was used to monitor the receptor location by visualizing the receptor YFP tag. […] Then, the peptide(s) containing the receptor BAB tetracysteine motif released by proteinases from the receptor N-terminus into the cell culture supernatant was quantified using a Victor X4 fluorescent plate reader with an excitation wavelength of 540 nm and an emission wavelength monitored at 615 nm. […]

human PAR2 = biological target: T2, human PAR2 (Homo sapiens, UniProt P55085); experiment: Release of N-terminal BAB motif from PAR2 on COS-1 cells; format: cell-based; conditions: 0.1 and 0.5 units per ml, 37°C, 30 minutes
T2 construct: expressed in transfected cells; host or cells: COS-1
T2 sequence (P55085 with tags, fused parts or gaps limits assumed): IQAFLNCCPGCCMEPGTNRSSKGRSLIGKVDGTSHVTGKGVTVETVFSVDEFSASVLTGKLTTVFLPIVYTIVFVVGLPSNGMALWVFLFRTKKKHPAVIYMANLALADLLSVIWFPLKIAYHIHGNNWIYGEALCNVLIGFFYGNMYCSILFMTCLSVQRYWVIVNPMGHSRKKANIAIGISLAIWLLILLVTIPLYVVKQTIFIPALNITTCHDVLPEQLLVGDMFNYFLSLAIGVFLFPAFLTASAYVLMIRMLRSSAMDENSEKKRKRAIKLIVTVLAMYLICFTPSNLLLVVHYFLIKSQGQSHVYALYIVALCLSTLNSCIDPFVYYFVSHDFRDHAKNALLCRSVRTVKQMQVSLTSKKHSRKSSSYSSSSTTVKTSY
From the text: as §1

thrombin = biological target: T3, thrombin (Homo sapiens, UniProt P00734); experiment: Effect of ISP1 on enzyme activity of thrombin; format: biochemical; conditions: data not shown
T3 construct: High activity human thrombin (cat. number 605195, lot B37722; 3,186 NIH units/mg) was from Calbiochem; purchased Calbiochem 605195

human PAR4 = biological target: T4, human PAR4 (Homo sapiens, UniProt Q96RI0, INS25FLNCCPGCCMEP); experiment: Release of N-terminal BAB motif from PAR4 on COS-1 cells; format: cell-based; conditions: 0.1 and 0.5 units per ml, 37°C, 30 minutes
T4 construct: expressed in transfected cells; host or cells: COS-1
T4 sequence (Q96RI0 with tags, fused parts or gaps): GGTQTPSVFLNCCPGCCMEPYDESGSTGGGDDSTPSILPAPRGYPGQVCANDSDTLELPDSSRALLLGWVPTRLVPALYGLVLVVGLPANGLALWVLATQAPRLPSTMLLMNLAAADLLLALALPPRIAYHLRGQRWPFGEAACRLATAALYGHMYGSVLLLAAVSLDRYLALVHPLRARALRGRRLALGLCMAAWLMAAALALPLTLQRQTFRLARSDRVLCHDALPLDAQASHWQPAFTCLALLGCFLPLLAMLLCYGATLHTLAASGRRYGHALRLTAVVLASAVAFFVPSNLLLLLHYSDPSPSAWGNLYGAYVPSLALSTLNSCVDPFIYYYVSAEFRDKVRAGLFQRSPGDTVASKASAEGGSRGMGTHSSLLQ
From the text: as §1

B1: ISP1: recombinant implantation serine proteinase 1 expressed in Pichia pastoris, also known as Mouse Prss28 (protein, UniProt Q924N9 27-274, looked up)
Serine protease 28: KPVGIVGGQRTPPGKWPWQVSLRMYSYEVNSWVHICGGSIIHPQWILTAAHCIQSQDADPAVYRVQVGEVYLYKEQELLNISRIIIHPDYNDVSKRFDLALMQLTALLVTSTNVSPVSLPKDSSTFDSTDQCWLVGWGNLLQRVPLQPPYQLHEVKIPIQDNKSCKRAYRKKSSDEHKAVAIFDDMLCAGTSGRGPCFGDSGGPLVCWKSNKWIQVGVVSKGIDCSNNLPSIFSRVQSSLAWIHQHIQ
modifications: recombinant, Pichia pastoris-expressed
notes: recombinant implantation serine proteinase 1 expressed in Pichia pastoris, also known as Mouse Prss28
**Q.** For B1, which “Release of PAR1 N-terminal BAB domain (PAR cleavage activity)” value (human PAR1) is on record?
**A.** significant concentration-dependent PAR cleavage activity

**Q.** What about the “Release of PAR2 N-terminal BAB domain (PAR cleavage activity)” value (human PAR2) of the same molecule?
**A.** significant concentration-dependent PAR cleavage activity

**Q.** And the “Inhibitory effect on enzyme activity of thrombin” value (thrombin)?
**A.** doesn't have any inhibitory effect

**Q.** What about the “Release of PAR4 N-terminal BAB domain (PAR cleavage activity)” value (human PAR4) of the same molecule?
**A.** significant concentration-dependent PAR cleavage activity
